{
  "source": "paper PMC3463842",
  "target": "ubiquitin^TAMRA (C-terminal TAMRA-labelled ubiquitin) (UniProt P0CG48)",
  "assay": "fluorescence polarisation",
  "data": [
    {"substance": "HOIP^LDD (domain or fragment)", "values": [
      {"measurement": "Kd", "result": 97, "unit": "µM"}
    ]},
    {"substance": "HOIP^LDD C930A (domain or fragment)", "values": [
      {"measurement": "Kd", "result": 734, "unit": "µM"}
    ]}
  ]
}
